Reference: patent US20040157214A1

Biological target: bovine thyroglobulin (bovine) (UniProt P01267)
Experiment: phage ELISA, 200 ug/ml thyroglobulin

Sequence of bovine thyroglobulin (bovine) (P01267 20-2769 limits assumed): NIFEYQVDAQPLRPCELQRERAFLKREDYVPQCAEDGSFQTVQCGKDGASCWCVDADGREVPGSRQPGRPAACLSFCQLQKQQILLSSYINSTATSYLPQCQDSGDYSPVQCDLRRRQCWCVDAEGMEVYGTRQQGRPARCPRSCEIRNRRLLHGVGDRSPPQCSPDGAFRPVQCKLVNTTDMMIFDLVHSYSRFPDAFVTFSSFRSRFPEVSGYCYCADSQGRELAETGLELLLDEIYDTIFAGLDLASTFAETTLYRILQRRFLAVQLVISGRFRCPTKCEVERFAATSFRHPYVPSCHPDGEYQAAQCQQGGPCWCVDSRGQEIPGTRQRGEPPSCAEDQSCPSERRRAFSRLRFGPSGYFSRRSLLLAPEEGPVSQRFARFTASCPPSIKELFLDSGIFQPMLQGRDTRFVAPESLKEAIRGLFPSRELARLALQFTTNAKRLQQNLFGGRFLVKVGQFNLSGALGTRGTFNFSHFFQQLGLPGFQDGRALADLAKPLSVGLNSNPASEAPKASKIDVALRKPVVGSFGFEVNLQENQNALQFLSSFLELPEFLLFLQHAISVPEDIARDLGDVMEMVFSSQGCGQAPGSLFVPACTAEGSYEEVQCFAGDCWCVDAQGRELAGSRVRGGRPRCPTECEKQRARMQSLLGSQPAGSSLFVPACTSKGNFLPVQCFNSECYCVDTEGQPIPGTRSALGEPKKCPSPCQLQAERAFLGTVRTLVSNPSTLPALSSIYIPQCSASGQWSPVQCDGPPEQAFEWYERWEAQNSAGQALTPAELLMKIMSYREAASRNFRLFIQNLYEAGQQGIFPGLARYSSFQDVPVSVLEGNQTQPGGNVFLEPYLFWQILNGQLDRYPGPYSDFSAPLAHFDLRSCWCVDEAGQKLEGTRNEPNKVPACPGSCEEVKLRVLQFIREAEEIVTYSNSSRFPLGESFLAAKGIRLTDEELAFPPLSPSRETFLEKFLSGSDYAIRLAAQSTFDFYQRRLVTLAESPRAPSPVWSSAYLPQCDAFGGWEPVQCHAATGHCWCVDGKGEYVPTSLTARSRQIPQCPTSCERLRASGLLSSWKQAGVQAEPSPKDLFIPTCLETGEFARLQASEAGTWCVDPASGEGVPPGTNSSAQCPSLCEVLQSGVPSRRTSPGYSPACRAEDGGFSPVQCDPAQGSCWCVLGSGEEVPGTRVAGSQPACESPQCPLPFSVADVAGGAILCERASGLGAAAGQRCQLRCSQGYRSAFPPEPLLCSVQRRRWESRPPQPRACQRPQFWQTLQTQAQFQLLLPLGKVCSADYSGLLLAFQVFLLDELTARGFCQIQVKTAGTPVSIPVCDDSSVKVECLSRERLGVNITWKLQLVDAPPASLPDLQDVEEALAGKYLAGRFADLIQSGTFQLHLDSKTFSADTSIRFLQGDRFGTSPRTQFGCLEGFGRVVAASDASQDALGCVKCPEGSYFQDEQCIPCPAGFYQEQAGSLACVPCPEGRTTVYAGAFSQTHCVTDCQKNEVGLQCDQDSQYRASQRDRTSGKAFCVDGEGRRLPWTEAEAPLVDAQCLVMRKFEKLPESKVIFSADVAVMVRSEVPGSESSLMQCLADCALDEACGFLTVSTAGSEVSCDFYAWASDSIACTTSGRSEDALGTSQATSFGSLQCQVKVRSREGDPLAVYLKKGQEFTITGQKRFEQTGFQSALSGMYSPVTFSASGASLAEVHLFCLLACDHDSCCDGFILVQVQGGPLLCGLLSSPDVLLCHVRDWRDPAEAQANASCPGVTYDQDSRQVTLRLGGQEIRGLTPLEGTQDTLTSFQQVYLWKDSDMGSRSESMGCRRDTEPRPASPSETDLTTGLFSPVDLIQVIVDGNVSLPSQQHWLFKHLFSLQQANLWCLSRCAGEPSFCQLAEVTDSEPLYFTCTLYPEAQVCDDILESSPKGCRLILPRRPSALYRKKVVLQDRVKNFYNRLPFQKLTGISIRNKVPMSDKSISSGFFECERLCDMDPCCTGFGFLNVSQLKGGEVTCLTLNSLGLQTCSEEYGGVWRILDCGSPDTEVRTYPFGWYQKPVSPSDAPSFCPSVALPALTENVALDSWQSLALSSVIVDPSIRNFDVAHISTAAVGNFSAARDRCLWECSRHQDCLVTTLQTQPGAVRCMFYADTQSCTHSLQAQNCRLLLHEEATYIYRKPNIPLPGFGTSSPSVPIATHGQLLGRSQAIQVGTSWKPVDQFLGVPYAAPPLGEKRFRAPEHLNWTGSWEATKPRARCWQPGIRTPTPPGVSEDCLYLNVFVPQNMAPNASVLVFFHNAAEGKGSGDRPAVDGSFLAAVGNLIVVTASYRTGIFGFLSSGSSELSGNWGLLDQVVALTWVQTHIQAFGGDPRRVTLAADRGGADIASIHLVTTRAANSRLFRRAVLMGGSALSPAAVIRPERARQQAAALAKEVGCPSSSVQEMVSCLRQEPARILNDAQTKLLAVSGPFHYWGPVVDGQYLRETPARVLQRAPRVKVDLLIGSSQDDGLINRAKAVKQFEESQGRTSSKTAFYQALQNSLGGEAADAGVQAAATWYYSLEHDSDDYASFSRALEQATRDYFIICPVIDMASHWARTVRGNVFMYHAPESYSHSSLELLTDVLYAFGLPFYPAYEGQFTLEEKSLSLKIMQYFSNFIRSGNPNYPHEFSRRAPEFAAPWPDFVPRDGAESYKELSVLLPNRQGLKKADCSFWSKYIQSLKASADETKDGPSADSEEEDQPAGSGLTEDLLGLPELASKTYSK
Sequence of pCAT-3 non-recombinant vector phagemid (P03661 19-424): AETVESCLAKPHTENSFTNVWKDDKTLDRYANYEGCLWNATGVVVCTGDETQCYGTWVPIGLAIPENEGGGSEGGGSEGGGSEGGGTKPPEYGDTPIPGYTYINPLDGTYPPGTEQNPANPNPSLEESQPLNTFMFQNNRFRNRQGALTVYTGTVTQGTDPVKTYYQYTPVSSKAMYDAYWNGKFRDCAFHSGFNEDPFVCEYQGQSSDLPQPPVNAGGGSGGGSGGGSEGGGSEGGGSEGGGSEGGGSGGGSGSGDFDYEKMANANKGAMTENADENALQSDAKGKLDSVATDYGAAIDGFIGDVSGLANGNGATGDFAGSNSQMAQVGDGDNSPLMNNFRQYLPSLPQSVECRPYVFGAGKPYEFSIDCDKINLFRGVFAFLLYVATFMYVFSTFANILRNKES

Work on “pCAT-3 non-recombinant vector phagemid (from UniProt P03661 19-424)” yielded an ELISA O.D. of 0.07 O.D.
